# Residue numbers refer to the chain shown, from its start.
# B1: hCOH-2-mAb (antibody, V domains shown)
# VH: EVQLQESGPGLVKPSQTLSLTCTVSGDSITSGYWNWIRQHPGKGLEYIGYISYSGSTYYNPSLKSRVTISRDTSKNQYSLKLSSVTAADTAVYYCASPNYPFYAMDYWGQGTLVTVSS
# VL: DIVLTQSPATLSLSPGERATLSCRASESVDNYGISFMNWFQQKPGQAPRLLIYAASNRATGIPARFSGSGSGTDFTLTISSLEPEDFAVYYCQQSKEVPWTFGGGTKVEIK
# notes: Parental monoclonal antibody; also called Humanized mAb hCOH-2
# B2: AB0605 (bispecific antibody, V domains shown)
# VH: EVQLVQSGGGVVQPGRSLRLSCAASGFTFSSYGMHWVRQAPGKCLEWVAVIWYDGSNKYYGDSVKGRFTISRDNSKNTLYLQMNSLRDEDTAVYYCARRFTMLRGQYIEDYGMDVWGQGTTVTVSS
# VL: not shown
# notes: also called AB0605-001
# B3: AB1080scFv (scFv, V domains shown)
# VH: B2 VH with G55A, M102H, Q106W, M113L
# VL: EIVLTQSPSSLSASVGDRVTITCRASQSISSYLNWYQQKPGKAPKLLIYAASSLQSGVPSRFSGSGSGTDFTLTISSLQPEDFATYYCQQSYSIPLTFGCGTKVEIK
# notes: scFv on yeast; also called AB1080 (yeast clone)
# B4: AB0622 (bispecific antibody, V domains shown)
# VH: B2 VH with Q106W, Y107I
# VL: not shown
# notes: also called AB0622-001
# B5: AB1080 (bispecific antibody, V domains shown)
# VH: B2 VH with G55A, M102H, Q106W, M113L
# VL: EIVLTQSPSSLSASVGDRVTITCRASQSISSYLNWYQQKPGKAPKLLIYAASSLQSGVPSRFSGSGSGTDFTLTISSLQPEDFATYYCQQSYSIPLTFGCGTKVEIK
# notes: also called AB1080-002; AB1080-003
# B6: AB0681 (bispecific antibody, V domains shown)
# VH: B2 VH with F27E, T28W, M102H, Q106W, Y107I
# VL: not shown
# notes: also called AB0681-001
# B7: AB0899 (bispecific antibody, V domains shown)
# VH: B2 VH with Y32S, G55A, M102Y, Q106W, M113L
# VL: not shown
# B8: AB0682 (bispecific antibody, V domains shown)
# VH: B2 VH with Y32S, Q106W
# VL: not shown
# notes: also called AB0682-001
# B9: AB0606 (bispecific antibody, V domains shown)
# VH: B2 VH with Q106W
# VL: not shown
# notes: also called AB0606-001
# B10: AB0900 (bispecific antibody, V domains shown)
# VH: B2 VH with Y32S, G55A, M102S, Q106W, M113L
# VL: not shown
# B11: AB1084scFv (scFv, V domains shown)
# VH: B2 VH with S31M, G55A, M102R, Q106W, M113L
# VL: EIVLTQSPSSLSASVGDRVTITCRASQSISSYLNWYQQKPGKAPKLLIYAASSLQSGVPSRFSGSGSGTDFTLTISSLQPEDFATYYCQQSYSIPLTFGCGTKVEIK
# notes: scFv on yeast; also called AB1084 (yeast clone)
# B12: AB0679 (bispecific antibody, V domains shown)
# VH: B2 VH with T28P, Q106W
# VL: not shown
# notes: also called AB0679-001
# B13: AB1081scFv (scFv, V domains shown)
# VH: B2 VH with T28A, G55E, K76R, M102N, Q106W, Y107I, M113L
# VL: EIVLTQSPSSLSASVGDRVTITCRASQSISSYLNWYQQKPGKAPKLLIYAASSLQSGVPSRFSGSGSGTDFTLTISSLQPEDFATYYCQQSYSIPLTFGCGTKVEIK
# notes: scFv on yeast; also called AB1081 (yeast clone)
# B14: AB1085 (bispecific antibody, V domains shown)
# VH: B2 VH with S30G, M102H
# VL: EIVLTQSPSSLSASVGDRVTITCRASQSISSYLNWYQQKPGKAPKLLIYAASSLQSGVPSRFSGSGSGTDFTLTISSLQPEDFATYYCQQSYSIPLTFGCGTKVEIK
# notes: also called AB1085-001
# B15: AB0898 (bispecific antibody, V domains shown)
# VH: B2 VH with Y32S, G55A, M102R, Q106W, M113L
# VL: not shown
# B16: AB1081 (bispecific antibody, V domains shown)
# VH: B2 VH with T28A, G55E, K76R, M102N, Q106W, Y107I, M113L
# VL: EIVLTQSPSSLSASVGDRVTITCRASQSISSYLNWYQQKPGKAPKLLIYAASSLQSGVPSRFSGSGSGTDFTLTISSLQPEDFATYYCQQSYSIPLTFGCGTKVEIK
# notes: also called AB1081-002
# B17: Ianalumab-F3′ (bispecific antibody, human IgG1, kappa)
# chain: DIVLTQSPATLSLSPGERATLSCRASQFILPEYLSWYQQKPGQAPRLLIYGSSSRATGVPARFSGSGSGTDFTLTISSLEPEDFAVYYCQQFYSSPLTFGCGTKVEIKGGGGSGGGGSGGGGSGGGGSQVQLQQSGPGLVKPSQTLSLTCAISGDSVSSNSAAWGWIRQSPGRCLEWLGRIYYRSKWYNSYAVSVKSRITINPDTSKNQFSLQLNSVTPEDTAVYYCARYQWVPKIGVFDSWGQGTLVTVSSASDKTHTCPPCPAPELLGGPSVFLFPPKPKDTLMISRTPEVTCVVVDVSHEDPEVKFNWYVDGVEVHNAKTKPREEQYNSTYRVVSVLTVLHQDWLNGKEYKCKVSNKALPAPIEKTISKAKGQPREPRVYTLPPCRDELTKNQVSLTCLVKGFYPSDIAVEWESNGQPENNYKTTPPVLVSDGSFTLYSKLTVDKSRWQQGNVFSCSVMHEALHNHYTQKSLSLSPG
# heavy: EVQLVESGGGLVKPGGSLRLSCAASGFTFSSYSMNWVRQAPGKGLEWVSSISSSSSYIYYADSVKGRFTISRDNAKNSLYLQMNSLRAEDTAVYYCARGAPIGAAAGWFDPWGQGTLVTVSSASTKGPSVFPLAPSSKSTSGGTAALGCLVKDYFPEPVTVSWNSGALTSGVHTFPAVLQSSGLYSLSSVVTVPSSSLGTQTYICNVNHKPSNTKVDKKVEPKSCDKTHTCPPCPAPELLGGPSVFLFPPKPKDTLMISRTPEVTCVVVDVSHEDPEVKFNWYVDGVEVHNAKTKPREEQYNSTYRVVSVLTVLHQDWLNGKEYKCKVSNKALPAPIEKTISKAKGQPREPQVCTLPPSRDELTENQVSLTCLVKGFYPSDIAVEWESNGQPENNYKTTPPVLDSDGSFFLYSWLTVDKSRWQQGNVFSCSVMHEALHNHYTQKSLSLSPG
# light: DIQMTQSPSSVSASVGDRVTITCRASQGISSWLAWYQQKPGKAPKLLIYAASSLQSGVPSRFSGSGSGTDFTLTISSLQPEDFATYYCQQGVSFPRTFGGGTKVEIKRTVAAPSVFIFPPSDEQLKSGTASVVCLLNNFYPREAKVQWKVDNALQSGNSQESVTEQDSKDSTYSLSSTLTLSKADYEKHKVYACEVTHQGLSSPVTKSFNRGEC
# notes: F3′ TriNKET: BAFF-R scFv-Fc (chain S), NKG2D Fab heavy (chain H) and light (chain L); no ADCC-enhancing mutations; also called ianalumab-F3′ TriNKET; Tool-F3′
# B18: hCOH-2-F3′ (bispecific antibody, human IgG1, kappa)
# chain: DIVLTQSPATLSLSPGERATLSCRASESVDNYGISFMNWFQQKPGQAPRLLIYAASNRATGIPARFSGSGSGTDFTLTISSLEPEDFAVYYCQQSKEVPWTFGCGTKVEIKGGGGSGGGGSGGGGSGGGGSEVQLQESGPGLVKPSQTLSLTCTVSGDSITSGYWNWIRQHPGKCLEYIGYISYSGSTYYNPSLKSRVTISRDTSKNQYSLKLSSVTAADTAVYYCASPNYPFYAMDYWGQGTLVTVSSASDKTHTCPPCPAPELLGGPSVFLFPPKPKDTLMISRTPEVTCVVVDVSHEDPEVKFNWYVDGVEVHNAKTKPREEQYNSTYRVVSVLTVLHQDWLNGKEYKCKVSNKALPAPIEKTISKAKGQPREPRVYTLPPCRDELTKNQVSLTCLVKGFYPSDIAVEWESNGQPENNYKTTPPVLVSDGSFTLYSKLTVDKSRWQQGNVFSCSVMHEALHNHYTQKSLSLSPG
# heavy: B17 heavy
# light: B17 light
# notes: F3′ TriNKET
# B19: hCOH-2-2-Fab (bispecific antibody, human IgG1, kappa)
# heavy 1: not shown
# light 1: DIVLTQSPATLSLSPGERATLSCRASESVDNYGISFMNWFQQKPGQAPRLLIYAASNRATGIPARFSGSGSGTDFTLTISSLEPEDFAVYYCQQSKEVPWTFGGGTKVEIKRTVAAPSVFIFPPSDEQLKSGTASVVCLLNNFYPREAKVQWKVDNALQSGNSQESVTEQDSKDSTYSLSSTLTLSKADYEKHKVYACEVTHQGLSSPVTKSFNRGEC
# heavy 2: not shown
# light 2: B17 light
# notes: 2-Fab TriNKET
# Tests used:
# [1] = biological target: T1, human BAFF-R expressed on cells (human, UniProt Q96RJ3 1-184); assay: flow cytometry, RAJI cells
# T1 construct: Cell surface BAFF-R, endogenous on B cell lines and primary B cells or overexpressed on isogenic CHO cells; also called hBAFF-R; hBAFF-R-CHO
# Protocol: The BAFF-R positive human B lymphoblastoid RAJI cell line was used to assess TriNKET binding to cell surface BAFF-R. Certain BAFF-R TriNKETs in the 2-Fab and F3′ formats, as described in the “exemplary multispecific binding proteins” subsection above, were diluted and incubated with Raji cells. Binding patterns of TriNKETs and parental monoclonal antibodies were detected using a fluorophore conjugated anti-human IgG secondary antibody. The cells were then incubated with a fluorophore conjugated anti-human IgG secondary antibody and were analyzed by flow cytometry. The mean fluorescence intensity (MFI) values were normalized to secondary antibody only controls to obtain fold over background (FOB) values.
# [2] = biological target: T1, human BAFF-R expressed on cells; assay: cell-based or functional assay
# [3] = biological target: T1, human BAFF-R expressed on cells; assay: flow cytometry, BAFF-R-CHO cells
# [4] = biological target: T1, human BAFF-R expressed on cells; assay: told of the group of Table 17, reference AB0369; format not given
# [5] = biological target: T2, hBAFF-R-hFc-His fusion protein (human, UniProt Q96RJ3 1-78, biotinylated in the yeast display assays); assay: yeast display flow cytometry after challenge: 100 pM hBAFFR-Fc biotin for 1hr at RT, then 1 mM nonbiotinylated hBAFFR-Fc (as printed on the sheet)
# T2 construct: the whole entry is named; also called hBAFFR-Fc; biotinylated hBAFF-R-hFc-His
# [6] = biological target: T3, cynomolgus monkey BAFF-R expressed on cells (cynomolgus monkey); assay: flow cytometry, cBAFF-R+ cells
# T3 construct: whole, on cells; also called cBAFF-R; cynoBAFF-R
# [7] = biological target: T1, human BAFF-R expressed on cells; assay: flow cytometry, hBAFF-R+ cells
# [8] = biological target: T3, cynomolgus monkey BAFF-R expressed on …; assay: flow cytometry, cyno BAFF-R CHO cells
# [9] = biological target: T1, human BAFF-R expressed on cells; assay: flow cytometry, human BAFF-R CHO cells
# [10] = biological target: T1, human BAFF-R expressed on cells; assay: blocking of BAFF-biotin on hBAFF-R CHO cells
# [11] = biological target: T3, cynomolgus monkey BAFF-R expressed on …; assay: flow cytometry, cyno BAFF-R CHO cells; remark: listed apart in the source
# [12] = biological target: T1, human BAFF-R expressed on cells; assay: flow cytometry, human BAFF-R CHO cells; remark: listed apart in the source
# [13] = biological target: T1, human BAFF-R expressed on cells; assay: flow cytometry, hBAFF-R+ cells; remark: listed apart in the source
# [14] = biological target: T1, human BAFF-R expressed on cells; assay: blocking of BAFF-biotin on BAFF-R CHO cells
binder,measurement,setting,value
B1,EC50,[1],0.043 nM
B2,KHYG-A-CD16Av mediated Cytolysis of Ramos cells EC50,[2],0.15 nM
same,EC50,[3],5.72 nM
same,fold improvement in BAFF-R binding against AB0369,[4],> 3 fold
B3,Iana (percent of events in the drawn gate named Iana),[5],23.4
B4,KHYG-A-CD16Av mediated Cytolysis of Ramos cells EC50,[2],0.09 nM
same,EC50,[3],3.45 nM
same,fold improvement in BAFF-R binding against AB0369,[4],> 3 fold
B5,EC50,[6],1.36 nM
same,EC50,[7],1.97 nM
same,EC50,[8],2.36 nM
same,EC50,[9],2.71 nM
same,IC50,[10],5.72 nM
B6,EC50,[11],5.6 nM
same,EC50,[12],5.1 nM
B7,EC50,[13],4.3 nM
B8,EC50,[11],3.1 nM
same,EC50,[12],2.4 nM
same,IC50,[14],12.6 nM
B9,KHYG-A-CD16Av mediated Cytolysis of Ramos cells EC50,[2],0.06 nM
same,EC50,[3],4.5 nM
same,fold improvement in BAFF-R binding against AB0369,[4],> 3 fold
B10,EC50,[13],11.7 nM
B11,Iana (percent of events in the drawn gate named Iana),[5],7.4
B12,EC50,[11],2.6 nM
same,EC50,[12],2.3 nM
same,IC50,[14],9.4 nM
B13,Iana (percent of events in the drawn gate named Iana),[5],27.2
B14,EC50,[6],4.34 nM
same,EC50,[7],5.78 nM
same,EC50,[8],3.29 nM
same,EC50,[9],4.48 nM
same,IC50,[10],12.7 nM
B15,EC50,[13],4.3 nM
B16,EC50,[6],> 14 nM
same,EC50,[7],> 8 nM
B17,EC50,[1],0.361 nM
same,EC50,[11],2.9 nM
same,EC50,[12],4.3 nM
B18,EC50,[1],0.893 nM
B19,EC50,[1],0.942 nM

# Reference: patent US20240360223A1 (DRAGONFLY THERAPEUTICS, published 2024)
